Results from US20060099648A1, “Compositions and methods for epitope mapping” (priority 2000, published 2006).

The binders below were run against Human IgG (Calbiochem; San Diego Calif.) (human) (assay: IgG displaced from peptide pin; competitor MSP1-19).

Binder	ΔF (%)
GGCDA [Peptide# 54]	< 5%
KPDSY [Peptide# 80]	11%
ENPNP [Peptide# 43]	< 5%
NPTCN [Peptide# 46]	< 5%
YPLFD [Peptide# 84]	12%
EEDSG [Peptide# 64]	7%
CECTK [Peptide# 76]	< 5%
CNENN [Peptide# 49]	16%
TEEDS [Peptide# 63]	< 5%
TKPDS [Peptide# 79]	11%
DAKCT [Peptide# 59]	< 5%
KCTEE [Peptide# 61]	6%
SGSNG [Peptide# 67]	< 5%
KCVEN [Peptide# 40]	< 5%
NENNG [Peptide# 50]	5%
GKKIT [Peptide# 71]	6%
FDGIF [Peptide# 87]	9%
PLFDG [Peptide# 85]	16%
QHQCV [Peptide# 4]	< 5%

Binder	ΔF (%)
EDSGS [Peptide# 65]	7%
KITCE [Peptide# 73]	7%
PNPTC [Peptide# 45]	< 5%
GIFCS [Peptide# 89]	11%
TCNEN [Peptide# 48]	< 5%
NPNPT [Peptide# 44]	< 5%
ADAKC [Peptide# 58]	< 5%
DGIFC [Peptide# 88]	7%
LFDGI [Peptide# 86]	11%
SYPLF [Peptide# 83]	13%
CVENP [Peptide# 41]	< 5%
AKCTE [Peptide# 60]	5%
DADAK [Peptide# 57]	< 5%
HQCVK [Peptide# 5]	< 5%
PDSYP [Peptide# 81]	9%
QCVKK [Peptide# 6]	< 5%
KKITC [Peptide# 72]	9%
NGKKI [Peptide# 70]	12%
CTKPD [Peptide# 78]	10%

Binder	ΔF (%)
CTEED [Peptide# 62]	< 5%
SNGKK [Peptide# 69]	< 5%
DSYPL [Peptide# 82]	9%
TCECT [Peptide# 75]	12%
PTCNE [Peptide# 47]	< 5%
CVKKQ [Peptide# 7]	< 5%
ENNGG [Peptide# 51]	< 5%
GCDAD [Peptide# 55]	7%
GSNGK [Peptide# 68]	< 5%
VKKQC [Peptide# 8]	< 5%
NNGGC [Peptide# 52]	6%
ECTKP [Peptide# 77]	13%
CDADA [Peptide# 56]	< 5%
NGGCD [Peptide# 53]	10%
KKQCP [Peptide# 9]	< 5%
ITCEC [Peptide# 74]	5%
DSGSN [Peptide# 66]	9%
VENPN [Peptide# 42]	< 5%
